Values belong to the substance of their own block, whether it stands above or below them.
What was measured:
[1] = biological target: HLA-B*27:05 heavy chain, carboxy terminally Sv5 tagged, stably expressed in isogenic HeLa cells (HeLa-B27.Sv5) (human); assay: pulse chase, immunoprecipitation and non-reducing SDS-PAGE
[2] = biological target: HLA-B27.C164S, C-terminally Sv5 tagged misfolding mutant of HLA-B*27:05 (human); assay: non-reducing SDS-PAGE and immunoblot
[3] = biological target: HLA-B27.C101S, C-terminally Sv5 tagged misfolding mutant of HLA-B*27:05 (human); assay: non-reducing SDS-PAGE and immunoblot

stoichiometry N [1]: 2
Substance: HLA-B*27:05 heavy chain, carboxy terminally Sv5 tagged, stably expressed in isogenic HeLa cells (HeLa-B27.Sv5) (natural protein)

stoichiometry N [2]: 2
Substance: HLA-B27.C164S, C-terminally Sv5 tagged misfolding mutant of HLA-B*27:05 (natural protein)

stoichiometry N [3]: 2
Substance: HLA-B27.C101S, C-terminally Sv5 tagged misfolding mutant of HLA-B*27:05 (natural protein)
